Test: yeast display, Sf9 membrane polyspecificity reagent, FACS + sequencing; frameworks hold sequencing errors
In short: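 A nanobody's polyreactivity label depends on the gate it was sorted from. Yeast display cells were stained with 10% biotinylated, detergent-solubilized Sf9 membrane reagent for 1 hour at 4 °C, enriched on streptavidin microbeads and sorted by FACS. The low and high (top ~1%) gates were set on anti-HA fluorescence for expression and streptavidin fluorescence for reagent binding.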

| Sequence | polyreactivity (PSR sort gate) |
| --- | --- |
| QVQLVESGGGLVQAGGSLRLSCAASGRTFSSYAMGWYRQAPGKEREFVAAINKNGGSTFYADSVKGRFTISRDNAKNTVYFQMNSLKPEDTAVYYCNADTDWWNPYNYWGQGTQVTVST | low polyreactivity |
| QVQLVESGGGLVQAGGSLRLSCAASGSTFYTNDMGWYRQAPGKERELVAAITSAGNTNYADSVKGRFTISRDNAKNTVYLQMNSLKPEDTAVYYYYYYQYDYWGQGTQVTVSS | low polyreactivity |
| QDQLVESGGGLVQAGGSLRLSCAASGSIFWVYVMGWYSQAPGKERELVAAITNGGSTDYADSVKGRFTISRDNAKNTVYLQLNSLKPEDTAVYYCAKRSPIWGRILITYDYWGQGTQVTVSS | low polyreactivity |
| QVQLVESGGGLVQAGGSLRLSCAASGRTFRGNAMGWYRQATGKERELVDVITASGSTTYADSVKGRFTISRDNAKNTVYLQLYSLKPEDTAVYYCAKYVPWYTLWLGGTDRDYWGQGTQVTVSS | low polyreactivity |
| QVQLEESGGGLVQAGGSLSLSSAASGSIFRNYAKGWYRQAPGKERELVAAISVRGGSTYYADSVKGRFTISRDNAKNTVYLQMNSLKPEDTAVYYCNARTYYPVYYRDGGYWGQGTQVTVSS | high polyreactivity |
| QDQLVESGGGLVQARGPLRLSCSASGFNFSNYAMGWYRHAPGKERELVAAISFTGSNTYYADSVKGRFTISRDNAKNTVYLQMNSLKPEDTAVYYWNDPLVWGVYAAQNWDEGYWGQGTQVTVSS | low polyreactivity |
| QVQLVESGGGLVQAGGSLRLSCAASGITFFTYGMGWYRQAPGKERELVASINWSGGTYYADSVKGRFTISRDNAKNTVYLQMNSLKPEDTAVYYCAAETSNSTQEMGYWGQGTQVTVSS | low polyreactivity |
| QVQLVESGGGLVQAGGSLRLSSADSGRIFYRYMVWYRHAPGKERELVAAISGRATRTYYADSVKGRFTISRDNAKKTVYLQMNSLKPEDTAVYYCAKRSYHGGDYWGQGTQVTVSS | high polyreactivity |
| QVQLVESGGGLVQAGGSLRLSCAASGPIFAYNAMGWYRQATGKERELVAAISYSGGSTYYPDSVKGRFTISRDNEKNSVYLQMNSLKPEDTAVYYCNAVYRYRTYRYDYWGQGTQVTVSS | high polyreactivity |
| QVQLVESGGGLVQAGGSLRLSCAASGRTFARYAMGWYRQAPGKERELVAAISWSGGRTYYADSVKGRFTISRDNAKNTVYLQMNSLKPEDTAVYYCAASLYRRQMDHWGQGTQVTVSS | high polyreactivity |
| QDQLQESGGGLVQAGGSLRLSCAASGSISYPRTMGWYRQAPGKEREFVAGIGVGGTTYYADSVKGRFTISRDNAKNTVYLQMKSLKPEDAAVYYCAVAAYYDKYYVYWGQGTQVTVSC | low polyreactivity |
| QVQLVESGGGLVQAGGRLRLSCAASGSTVVFNAMGWYRQAPGKERELVAAISKSGGSTYYADSVKGRFTISRDNAKNTVYLQMNSLKPEDTAVYYCNRVSRKILDGDYDYWGQGTQVTVSS | high polyreactivity |
| QVQLVESGGGLVQAGGSLRLSCAASGRTLRRNAMGWYRQAPGKERELVAAITWSGTSTYYADSVKGRFTISRDNAKNTVDLQMNSLKPEDTAVYYCAAEVAYTDTEYFWYYYWGQGTQVTVSS | high polyreactivity |
| QVQLVESGGGLVKAGCSLRLTCAASARTFRWYAMGWYRQAPGKERELVATISWSSGRTRYADSVKGRFTISRDNANNTVYLQMNSLKPEETAVYYCNADQWDKSYDYWGQGSQVTVSS | high polyreactivity |
| QVQLVESGGGLVQAGGSLRLSCAASGLTLGSYAMGWYRQAPGKERELVAAISRRSGRTYYADSVKGRFTISRDNAKNTVYLQMNSLKPEDTAVYYCNRGYTAQVYTEFDYWGQGTQVTVSS | low polyreactivity |
| QVQLVESGGGLVQAGGSLRLSCAASGSISVRNVMGWYRQAPRKERELVATIRRTGGSTSYADSVKGRFTISRDNAKNTVYLQMNSLKPEDTAVYYCAAVGYTTYRRYDYWGQGTQVTVSS | low polyreactivity |
| QVQLVESGGGLVQAGGSLRLSCAASGRTFSKYAMGWYRQAPGKERELVAAISSTGGSTYYADSVKGRFTISRDNAKNTVYLQMNSLIPEDTAVYYCATEVYWFHSRAYYYWGQGSQVTVSS | high polyreactivity |
